From paper doi:10.1101/820381v1 (biorxiv, 2019)

Key:
[1] = target: T1, OPR3 (12-oxophytodienoic acid reductase 3) (Arabidopsis thaliana, UniProt Q9FUP0); test: intrinsic Trp fluorescence quenching; assay type: binding; settings: 0.75 µmol/L OPR3, 40 mmol/L KPi pH 7.2, 25°C
[2] = target: T1, OPR3 (12-oxophytodienoic acid reductase 3); settings: NADPH co-substrate, 40 mmol/L KPi pH 7.2, 25°C, aerobic
[3] = test system: CC/C=C\C[C@@H]1C(=O)C=C[C@@H]1CCCCCCCC(=O)O; test: purified protein; settings: pH 7.2; 25.0 °C
[4] = test system: [O]C1=C(O)[C@@H]([C@@H](O)CO)OC1=O; test: purified protein; settings: pH 7.8
[5] = test system: O=C1C=CCC1; test: purified protein; settings: pH 7.2; 25.0 °C

T1 sequence (Q9FUP0 whole entry): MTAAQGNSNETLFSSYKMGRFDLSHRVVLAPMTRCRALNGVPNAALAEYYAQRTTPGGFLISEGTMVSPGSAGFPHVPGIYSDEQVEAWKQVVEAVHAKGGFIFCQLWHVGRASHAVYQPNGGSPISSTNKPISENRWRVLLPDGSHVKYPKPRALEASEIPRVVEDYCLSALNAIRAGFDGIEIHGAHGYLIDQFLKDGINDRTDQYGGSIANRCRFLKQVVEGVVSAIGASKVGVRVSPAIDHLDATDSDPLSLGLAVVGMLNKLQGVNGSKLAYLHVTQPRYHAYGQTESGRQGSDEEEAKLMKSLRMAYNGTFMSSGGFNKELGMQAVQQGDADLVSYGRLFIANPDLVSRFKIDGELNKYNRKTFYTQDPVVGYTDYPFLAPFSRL

Question: With `CC/C=C\C[C@@H]1C(=O)C=C[C@@H]1CCCCCCCC(=O)O` [12-OPDA] as the compound, how does the “% quenching at 607 μmol/L” value [1] read?
Answer: 54.0±0.4%

Question: For `C=CC(C)=O` [MVK], which Km [2] is on record?
Answer: 38.5 ± 14 µM

Question: With “OPR3 (12-oxophytodienoic acid reductase 3) (Arabidopsis thaliana)” as the compound, how does the Km [3] read?
Answer: 28.3 ± 8.5 µM

Question: What about the Km [4] of the same compound?
Answer: 1 µM

Question: And the Km [5]?
Answer: 1967 ± 825 µM
